# Experimental data as given in article PMC3154423.
# B1: TRE duplex 15-mer (dsDNA)
# DNA 1: CGCGTGACTCACCCC
# DNA 2: GGGGTGAGTCACGCG
# How the values were obtained:
# Assay in all cases: ITC
# [1] = biological target: Jun bZIP K268A;Fos bZIP R157A (human;human, UniProt P05412;P01100 252-315;137-200, K268A|R157A)
# [2] = biological target: Jun bZIP K273A;Fos bZIP R143A (human;human, UniProt P05412;P01100 252-315;137-200, K273A|R143A)
# [3] = biological target: Jun bZIP K258A;Fos bZIP R158A (human;human, UniProt P05412;P01100 252-315;137-200, K258A|R158A)
# Sequence of Jun bZIP K258A;Fos bZIP R158A (P05412 252-315 K258A, chain 1 of 2): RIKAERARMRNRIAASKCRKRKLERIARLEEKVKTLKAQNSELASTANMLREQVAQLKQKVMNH
# Sequence of Jun bZIP K258A;Fos bZIP R158A (P01100 137-200 R158A, chain 2 of 2): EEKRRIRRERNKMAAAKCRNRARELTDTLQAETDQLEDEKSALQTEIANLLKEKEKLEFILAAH
# [4] = biological target: Jun bZIP K258A;Fos bZIP R144A (human;human, UniProt P05412;P01100 252-315;137-200, K258A|R144A)
# Sequence of Jun bZIP K258A;Fos bZIP R144A (P05412 252-315 K258A, chain 1 of 2): as the sequence (P05412 252-315 K258A, chain 1 of 2) above
# Sequence of Jun bZIP K258A;Fos bZIP R144A (P01100 137-200 R144A, chain 2 of 2): as the sequence (P01100 137-200 R158A, chain 2 of 2) above, with R8A, A22R counted along it
# [5] = biological target: Jun bZIP K258A;Fos bZIP R146A (human;human, UniProt P05412;P01100 252-315;137-200, K258A|R146A)
# Sequence of Jun bZIP K258A;Fos bZIP R146A (P05412 252-315 K258A, chain 1 of 2): as the sequence (P05412 252-315 K258A, chain 1 of 2) above
# Sequence of Jun bZIP K258A;Fos bZIP R146A (P01100 137-200 R146A, chain 2 of 2): as the sequence (P01100 137-200 R158A, chain 2 of 2) above, with R10A, A22R counted along it
# [6] = biological target: Jun bZIP R259A;Fos bZIP R158A (human;human, UniProt P05412;P01100 252-315;137-200, R259A|R158A)
# Sequence of Jun bZIP R259A;Fos bZIP R158A (P05412 252-315 R259A, chain 1 of 2): as the sequence (P05412 252-315 K258A, chain 1 of 2) above, with A7K, R8A counted along it
# Sequence of Jun bZIP R259A;Fos bZIP R158A (P01100 137-200 R158A, chain 2 of 2): as the sequence (P01100 137-200 R158A, chain 2 of 2) above
# [7] = biological target: Jun bZIP R270A;Fos bZIP R143A (human;human, UniProt P05412;P01100 252-315;137-200, R270A|R143A)
# Sequence of Jun bZIP R270A;Fos bZIP R143A (P05412 252-315 R270A, chain 1 of 2): as the sequence (P05412 252-315 K258A, chain 1 of 2) above, with A7K, R19A counted along it
# Sequence of Jun bZIP R270A;Fos bZIP R143A (P01100 137-200 R143A, chain 2 of 2): as the sequence (P01100 137-200 R158A, chain 2 of 2) above, with R7A, A22R counted along it
# [8] = biological target: Jun bZIP R272A;Fos bZIP R158A (human;human, UniProt P05412;P01100 252-315;137-200, R272A|R158A)
# Sequence of Jun bZIP R272A;Fos bZIP R158A (P05412 252-315 R272A, chain 1 of 2): as the sequence (P05412 252-315 K258A, chain 1 of 2) above, with A7K, R21A counted along it
# Sequence of Jun bZIP R272A;Fos bZIP R158A (P01100 137-200 R158A, chain 2 of 2): as the sequence (P01100 137-200 R158A, chain 2 of 2) above
# [9] = biological target: Jun bZIP K268A;Fos bZIP K153A (human;human, UniProt P05412;P01100 252-315;137-200, K268A|K153A)
# Sequence of Jun bZIP K268A;Fos bZIP K153A (P05412 252-315 K268A, chain 1 of 2): as the sequence (P05412 252-315 K258A, chain 1 of 2) above, with A7K, K17A counted along it
# Sequence of Jun bZIP K268A;Fos bZIP K153A (P01100 137-200 K153A, chain 2 of 2): as the sequence (P01100 137-200 R158A, chain 2 of 2) above, with K17A, A22R counted along it
# [10] = biological target: Jun-Jun bZIP K273A (human, UniProt P05412 252-315, K273A)
# Sequence of Jun-Jun bZIP K273A (P05412 252-315 K273A): as the sequence (P05412 252-315 K258A, chain 1 of 2) above, with A7K, K22A counted along it
# [11] = biological target: Jun bZIP R270A;Fos bZIP K148A (human;human, UniProt P05412;P01100 252-315;137-200, R270A|K148A)
# Sequence of Jun bZIP R270A;Fos bZIP K148A (P05412 252-315 R270A, chain 1 of 2): as the sequence (P05412 252-315 K258A, chain 1 of 2) above, with A7K, R19A counted along it
# Sequence of Jun bZIP R270A;Fos bZIP K148A (P01100 137-200 K148A, chain 2 of 2): as the sequence (P01100 137-200 R158A, chain 2 of 2) above, with K12A, A22R counted along it
# [12] = biological target: Jun bZIP K273A;Fos bZIP K153A (human;human, UniProt P05412;P01100 252-315;137-200, K273A|K153A)
# Sequence of Jun bZIP K273A;Fos bZIP K153A (P05412 252-315 K273A, chain 1 of 2): as the sequence (P05412 252-315 K258A, chain 1 of 2) above, with A7K, K22A counted along it
# Sequence of Jun bZIP K273A;Fos bZIP K153A (P01100 137-200 K153A, chain 2 of 2): as the sequence (P01100 137-200 R158A, chain 2 of 2) above, with K17A, A22R counted along it
# [13] = biological target: Jun bZIP K258A;Fos bZIP R155A (human;human, UniProt P05412;P01100 252-315;137-200, K258A|R155A)
# Sequence of Jun bZIP K258A;Fos bZIP R155A (P05412 252-315 K258A, chain 1 of 2): as the sequence (P05412 252-315 K258A, chain 1 of 2) above
# Sequence of Jun bZIP K258A;Fos bZIP R155A (P01100 137-200 R155A, chain 2 of 2): as the sequence (P01100 137-200 R158A, chain 2 of 2) above, with R19A, A22R counted along it
# [14] = biological target: Jun bZIP K268A;Fos bZIP R146A (human;human, UniProt P05412;P01100 252-315;137-200, K268A|R146A)
# Sequence of Jun bZIP K268A;Fos bZIP R146A (P05412 252-315 K268A, chain 1 of 2): as the sequence (P05412 252-315 K258A, chain 1 of 2) above, with A7K, K17A counted along it
# Sequence of Jun bZIP K268A;Fos bZIP R146A (P01100 137-200 R146A, chain 2 of 2): as the sequence (P01100 137-200 R158A, chain 2 of 2) above, with R10A, A22R counted along it
# [15] = biological target: Jun bZIP R272A;Fos bZIP R157A (human;human, UniProt P05412;P01100 252-315;137-200, R272A|R157A)
# Sequence of Jun bZIP R272A;Fos bZIP R157A (P05412 252-315 R272A, chain 1 of 2): as the sequence (P05412 252-315 K258A, chain 1 of 2) above, with A7K, R21A counted along it
# Sequence of Jun bZIP R272A;Fos bZIP R157A (P01100 137-200 R157A, chain 2 of 2): as the sequence (P01100 137-200 R158A, chain 2 of 2) above, with R21A, A22R counted along it
# [16] = biological target: Jun bZIP R261A;Fos bZIP K148A (human;human, UniProt P05412;P01100 252-315;137-200, R261A|K148A)
# Sequence of Jun bZIP R261A;Fos bZIP K148A (P05412 252-315 R261A, chain 1 of 2): as the sequence (P05412 252-315 K258A, chain 1 of 2) above, with A7K, R10A counted along it
# Sequence of Jun bZIP R261A;Fos bZIP K148A (P01100 137-200 K148A, chain 2 of 2): as the sequence (P01100 137-200 R158A, chain 2 of 2) above, with K12A, A22R counted along it
# Sequence of Jun bZIP K268A;Fos bZIP R157A (P05412 252-315 K268A, chain 1 of 2): as the sequence (P05412 252-315 K258A, chain 1 of 2) above, with A7K, K17A counted along it
# Sequence of Jun bZIP K268A;Fos bZIP R157A (P01100 137-200 R157A, chain 2 of 2): as the sequence (P01100 137-200 R158A, chain 2 of 2) above, with R21A, A22R counted along it
# Sequence of Jun bZIP K273A;Fos bZIP R143A (P05412 252-315 K273A, chain 1 of 2): as the sequence (P05412 252-315 K258A, chain 1 of 2) above, with A7K, K22A counted along it
# Sequence of Jun bZIP K273A;Fos bZIP R143A (P01100 137-200 R143A, chain 2 of 2): as the sequence (P01100 137-200 R158A, chain 2 of 2) above, with R7A, A22R counted along it
binder,measurement,setting,value
B1,Kd,[1],600 ± 30 nM
same,Kd,[2],1220 ± 150 nM
same,Kd,[3],960 ± 60 nM
same,Kd,[4],2780 ± 50 nM
same,Kd,[5],660 ± 10 nM
same,Kd,[6],2160 ± 130 nM
same,Kd,[7],1600 ± 50 nM
same,Kd,[8],620 ± 40 nM
same,Kd,[9],470 ± 60 nM
same,Kd,[10],6.52 ± 0.75 µM
same,Kd,[11],1900 ± 120 nM
same,Kd,[12],840 ± 50 nM
same,Kd,[13],5.38 ± 0.12 µM
same,Kd,[14],420 ± 20 nM
same,Kd,[15],430 ± 20 nM
same,Kd,[16],950 ± 60 nM
